Results as given in patent US7083511.
Where “and” joins values, the source holds several entries; their conditions need not be identical. Equal entries are not always repeated.

What was measured:
[1] = test system: T1, RPRTSTF
T1 sequence: RPRTSTF

[2] = test system: T2, RPRTSSV
T2 sequence: RPRTSSV

[3] = test system: T3, KPRTSSF
T3 sequence: KPRTSSF

[4] = test system: T4, RPRTSSE
T4 sequence: RPRTSSE

[5] = test system: T5, RPRTSSK
T5 sequence: RPRTSSK

[6] = test system: T6, RPRTSSF
T6 sequence: RPRTSSF

[7] = test system: T7, PRTSSF
T7 sequence: PRTSSF

[8] = test system: T8, RPKTSSF
T8 sequence: RPKTSSF

[9] = test system: T9, RPRTSSA
T9 sequence: RPRTSSA

[10] = test system: T10, RPRTSSL
T10 sequence: RPRTSSL

[11] = test system: T11, Crosstide (GRPRTSSFAEG)
T11 sequence: GRPRTSSFAEG

[12] = test system: T12, RPRAATF
T12 sequence: RPRAATF

[13] = test system: T13, RPRTSAF
T13 sequence: RPRTSAF

[14] = test system: T14, RPRTSS
T14 sequence: RPRTSS

Row | Substance | kinase activity toward peptide (30 µM), relative to peptide 1 (Crosstide) [1] [%] | kinase activity toward peptide (30 µM), relative to peptide 1 (Crosstide) [2] [%] | kinase activity toward peptide (30 µM), relative to peptide 1 (Crosstide) [3] | kinase activity toward peptide (30 µM), relative to peptide 1 (Crosstide) [4] [%] | kinase activity toward peptide (30 µM), relative to peptide 1 (Crosstide) [5] [%] | kinase activity toward peptide (30 µM), relative to peptide 1 (Crosstide) [6] | kinase activity toward peptide (30 µM), relative to peptide 1 (Crosstide) [7] [%] | kinase activity toward peptide (30 µM), relative to peptide 1 (Crosstide) [8] [%] | kinase activity toward peptide (30 µM), relative to peptide 1 (Crosstide) [9] [%] | kinase activity toward peptide (30 µM), relative to peptide 1 (Crosstide) [10] [%] | kinase activity toward peptide (30 µM), relative to peptide 1 (Crosstide) [11] [%] | kinase activity toward peptide (30 µM), relative to peptide 1 (Crosstide) [12] [%] | kinase activity toward peptide (30 µM), relative to peptide 1 (Crosstide) [13] [%] | kinase activity toward peptide (30 µM), relative to peptide 1 (Crosstide) [14]
1 | GST-PKBα | 208 | 67 | 6% | 21 | 48 | 160% | < 1 | 26 | 26 | 69 | 100 | 55 | < 1 | < 1%
2 | GST-SGK2α[S356D] | 192 | 124 | < 1% | 34 | 128 | 182% | < 1 | 8 | 82 | 185 | 100 | 61 | < 1 | 8%
3 | GST-ΔN-SGK3[S419D] | 156 | 139 | < 1% | 67 | 200 | 137% | < 1 | 48 | 123 | 113 | 100 | 56 | < 1 | 18%
4 | GST-ΔN-SGK(61-431)[S422D] | – | – | 2% and < 1% | – | – | 154% and 135% | < 1 | – | – | – | 100 | – | < 1 | 5.1% and 10%
